Patent publication US8529906B2, “Compositions for inducing immune responses” (Novartis Vaccines and Diagnostics, Inc., priority 2003, dated 2013)
“Also recorded” adds a separate entry of the source.

Tested on: EG7 (EL4 transfected with ovalbumin) and EL4 target cells
Test: CTL activity (51Cr release cytotoxic cell assay) of spleen cells from mice immunized with OVA formulations
Format: in vivo
Conditions: subcutaneous, dose 10 μg, boosted at 14 and 28 days; for CTL activity relative to the other OVA formulations: comparison in words; for CTL response: percent specific 51Cr release
Procedure: Ovalbumin, PLG/OVA-entrapped particles, small OVA-protein particles (250 nm) and large OVA-protein particles (2500 nm), produced as described above, were administered subcutaneously to mice (dose=10 μg). The animals were boosted at 14 and 28 days. […] two weeks following the last immunization and CTL activity assayed as described in Doe et al., Proc. Natl. Acad. Sci. (1996) 93:8578-8583.
Lymphocyte cultures were prepared as follows. Spleen cells (sc) from immunized mice were cultured in 24-well dishes at 5×10^6 cells per well. Of those cells, 1×10^6 were sensitized with synthetic epitopic peptides from EG7 (EL4 transfected with ovalbumin) and EL4 proteins at a concentration of 10 μM for 1 hour at 37° C., washed, and cocultured with the remaining 4×10^6 untreated sc in 2 ml of culture medium [50% RPMI 1640 and 50% alpha-MEM (GIBCO)] supplemented with heat-inactivated fetal serum, 5×10^−5 M 2-mercaptoethanol, antibiotics, and 5% interleukin-2 (Rat T-Stim, Collaborative Biomedical Products, Bedford, Mass.). Cells were fed with 1 ml of fresh culture medium on days 3 and 5, and cytotoxicity was assayed on day 6.
The cytotoxic cell assay was conducted as follows. EG7 (EL4 transfected with ovalbumin) and EL4 target cells used in the ^51Cr release assays express class I but not class II MHC molecules. Approximately 1×10^6 target cells were incubated in 200 μl of medium containing 50 μCi (1 Ci=37 Gbq) of ^51Cr and synthetic Ovalbumin peptides (1 μm) for 60 min and washed three times. Effector (E) cells were cultured with 5×10^3 target (T) cells at various EST ratios in 200 μl of culture medium in 96-well round-bottom tissue culture plates for 4 hours. The average cpm from duplicate wells was used to calculate percent specific ^51Cr release.

| Molecule | CTL activity relative to the other OVA formulations | CTL response |
| --- | --- | --- |
| small OVA-protein particles: Heat-stabilized ovalbumin protein particles formed by acetone coacervation, about 250 nm in diameter (protein, UniProt P01012 2-386, looked up, heat-stabilized particles, Heat-stabilized ovalbumin protein particles formed by acetone coacervation, about 250 nm in diameter) Ovalbumin: GSIGAASMEFCFDVFKELKVHHANENIFYCPIAIMSALAMVYLGAKDSTRTQINKVVRFDKLPGFGDSIEAQCGTSVNVHSSLRDILNQITKPNDVYSFSLASRLYAEERYPILPEYLQCVKELYRGGLEPINFQTAADQARELINSWVESQTNGIIRNVLQPSSVDSQTAMVLVNAIVFKGLWEKAFKDEDTQAMPFRVTEQESKPVQMMYQIGLFRVASMASEKMKILELPFASGTMSMLVLLPDEVSGLEQLESIINFEKLTEWTSSNVMEERKIKVYLPRMKMEEKYNLTSVLMAMGITDVFSSSANLSGISSAESLKISQAVHAAHAEINEAGREVVGSAEAGVDAASVSEEFRADHPFLFCIKHIATNAVLFFGRCVSP | activity comparable to the large OVA-protein particles; also recorded: more active, e.g., elicited a greater immune response than the PLG/OVA-entrapped particles and ovalbumin alone formulations | elicited a CTL response |
| large OVA-protein particles: Heat-stabilized ovalbumin protein particles formed by acetone coacervation, about 2.5 μm in diameter (protein, UniProt P01012 2-386, looked up, heat-stabilized particles, Heat-stabilized ovalbumin protein particles formed by acetone coacervation, about 2.5 μm in diameter) Ovalbumin: GSIGAASMEFCFDVFKELKVHHANENIFYCPIAIMSALAMVYLGAKDSTRTQINKVVRFDKLPGFGDSIEAQCGTSVNVHSSLRDILNQITKPNDVYSFSLASRLYAEERYPILPEYLQCVKELYRGGLEPINFQTAADQARELINSWVESQTNGIIRNVLQPSSVDSQTAMVLVNAIVFKGLWEKAFKDEDTQAMPFRVTEQESKPVQMMYQIGLFRVASMASEKMKILELPFASGTMSMLVLLPDEVSGLEQLESIINFEKLTEWTSSNVMEERKIKVYLPRMKMEEKYNLTSVLMAMGITDVFSSSANLSGISSAESLKISQAVHAAHAEINEAGREVVGSAEAGVDAASVSEEFRADHPFLFCIKHIATNAVLFFGRCVSP | more active, e.g., elicited a greater immune response than the PLG/OVA-entrapped particles and ovalbumin alone formulations | elicited a CTL response |
